Reference: the nanobody polyreactivity screen of Harvey et al. (2022)

Assay: yeast display, Sf9 membrane polyspecificity reagent, FACS + sequencing; frameworks hold sequencing errors
In short: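 Sorting gates, low and high (top ~1%), were placed on anti-HA fluorescence to track expression and on streptavidin fluorescence to track reagent binding. A clone's polyreactivity label is taken from the gate it came out of. The reagent was 10% biotinylated, detergent-solubilized Sf9 membrane, applied for 1 hour at 4 °C to galactose-induced yeast display cells.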

Sequence | polyreactivity (PSR sort gate)
QVQLVESGGGLVQAGGSLRLSCAASGSIFVYNAMGWYRQAPGNERELVAGINYSGGSTYYADSVKGRFTISRDNATNTVYLQMNSLKPEDTAVYSCARRRPYQWPYNYWGQGTQVTVSS | high polyreactivity
QVQLVESGGGLFQAGGSLRLSCAASGITFPDYAMGWYRQAPGKERELVATISSSGGNTYYADSVKGRFTISRDNAKNTVYLQMNSLKPEDTAVYYCATVSYYLGYDYWGQGTQVTVSS | low polyreactivity
QVQLVESGGGLVQAGGSLRLSCAASGSTFGGYAMGWNRQAPGKEREWVAAISQSGTRTYYADSVKGRFTISRDNAKNTVYLQMNSLKPEDTAVYYCAAVKRFRKYDYWGQGTQVTVSS | high polyreactivity
QVQLVESGGGLVQAGGSLRLSCAASGRTFYNYAMGWYRQAPGKERELVAAITRGGSTYYADSVKGRFTISRDNAKNTVYLQMNSLKPEDTAVYYCNAYYYIPFEGRGYSKMDYWGQGTQVTVSS | high polyreactivity
QVQLVESGGGLVQAGGRLRLSCAASGITFYDYAMGWYRQAHGKERELVAVITRRGGSTYYAHSVKGRFTISRDNAKNTVYLQMNSLKPEDTAVYYCNADRTAPERYSRVPSSDSWGQGTQVTVSS | high polyreactivity
QVQLVESGGGLVQAGGSLRLSCAASGLKFGVNPMGWYRPAPGKERELVAAISRDSDTNYADSVKGRFTISRDNAKNTVYLQMISLKPEDTAVYYFNAYSEWPVPSPPRSQSLDYWGQGTQVTVSS | low polyreactivity
QVHLVESGGGLVQAGGSLRLSCAASASIFGSNAMGWYRQAPGKDRELVAAITWSDGSTYYADSVKGRFTISRDNAKNTVYLQMNSLKPDDTAVYYCSSDYGYSWYDYWGQGTQVTVSS | low polyreactivity
QVQLVESGGCLVQAGGSLRLSCAATGRIFKRYVMGWYRQAPGKERELVAAISQRGGSTNYADSVKGRFTISRDNAKNTVYLQMNSLKPEDTAVYYCAAGFFSRYDYWGQGTQVTVSS | high polyreactivity
QVQLGESGGGLVQAGGSLRLSCAASGSTFVRYAMGWYRQAPGKERELVAGISYSGGRTYYADSVKGRFTISRDNAKNTVYLQMNSLKPEDTAVYYCAAEGTTSWWVKYGYWGQGTQVTVSS | low polyreactivity
QVQLVESAGGLVQAGASLRLSCAASGLIYRKYSMGWYRQAPGKERELVAAISSGGDTNYADSVKGLFTISRDNAKNTVYLQMNSLKPEDTAVYYCNADRKYWYGIALEYWGQGTQVTVSS | high polyreactivity
QVQLVESGGGLVQAGGSLRLSCDASASILRENAMGWYRQAPGKERELVAVITRGGNTYYADSVKGRFTISRDNAKNTVYLQMNSLKPEDTAVYYCAAKRRERYGQTYGYWGQGTQVTVSS | high polyreactivity
QVQLVESGGGLVQAGGSLRLSCAASGFIFYKYGMGWYRQAPGKERELVAAINRRGGTTSYADSVKGRFTISRDNAKNTVYLQMNSLKPEDTAVYYCAASAPGGQDDYWGQGTQVTVSS | high polyreactivity
QVQLVESGGGLVQAGGSLRLSCAASGRTFAYNAMGWYRQAPGKERELVASITSGGSTNYADSVKGRFTISRDNAKNTVYLQMNSLKPEDTAVFYCNKDGKYHRVLYDYWGQGTQVTVSS | low polyreactivity
QVQLVESGGGLVQAGGSLRLSCAASGSTYDSNAMGWYRQAPGKERELVAAIDWSGGSTYYADSVKGRFTISRDNAKNTVYLQMNSLKPADTAVYYCAADDSSINYGDFDYWGQGTQVTVSS | low polyreactivity
QDQLVESGGGLVQAGGSLLLSCAASGIIITGNAMVWYRQAPGKERELVAGITGSGGNTYYADCVKGRYTISRDNAKNTFYLQMNSLKPEDTGVYYCAARRHIFLLIIWSGRVDYWGQGTQVTVSS | low polyreactivity
QVQLVESGGGLVQAGGSLRLSCAASGNTFASNAMGWYRQAPGKERELVATISTSGTTYYADSVKGRFTISRDNAKNTVYLQMNSLKPEDTAVYYCARTFKSRRGSRGYYWGQGTQVTVSS | high polyreactivity

Sequence | polyreactivity (PSR sort gate)
QVQLVESGGGLVQAGGSLRLSCAASGRIFGTYAMGWYRQAPGKERELVAAITQSGGSTYYADSVKGRFTISRDNAKNTVYLQMNSLKPEDTAVYYCKLVKTTSTLGKRRYDYWGQGTQVTVSS | high polyreactivity
QVQLVESGGGLVQAGGSLRLSCAASGSTLKYNAMGWYRQAPGKEREFVASITLSAGRTYYADSVKGRFTISRDNAKNTVYLQMNSLKPEDTAVYYCAARRYFSYRYDYWGQGTQVTVSS | high polyreactivity
LVQHVESGGGLVKAGGSLRLICAASGRTFLRNAMGWYRQAPGKERELVATITRGGSTYYADSVKGRFTISRDNAKNTVYLEKTSLKPEDTAVYYCSKDFSGGFRRPDYGYWGQGPQVTVSS | low polyreactivity
QVQLVESGGGLVQAGGSLRLSCAASGSTFHYYAMGWYRQAPGKERELVAAISQSGSGTYYADSVKGRFTISRDNAKNTVYLQMNSLKPEDTAVYYCAKESTKIYRVVEMDYWGQGTQVTVSS | low polyreactivity
QVQLVESGGGLVQAGGSLRLSCAASGFTFVSNDMGWYRQAPGKERELVAAIRYRGGDTYYADSVKGRFTISRDNAKNTVYLQMNRLKPEDTAVYYCAVDVATYTAGWYYHGYDYWGQGTQVTVSS | low polyreactivity
QVQLVESGGGLVHAGGSLRLSCAASGFTFRSYAMGWYRQAPGKERELVAAISWSGGSTYYADSVKGRYTISRDNAKNTVYLQMNSLKPEDTAVYYCAAVRVSKYDYWGQGTQVTVSS | high polyreactivity
QVQLVESGGGLVQAGGSLRLSCAASGSTFVRYAMGWYRQAPGKERELVASISSSGSTYYADSVKGRFTISRDNAKNTVYLQMNSLKPEDTAVYYCAKQYGGRYGYWGQGTQVTVSS | low polyreactivity
QVQLVESGGGLVQAGGSLRLICAASGSTIVWNAMGWYRQAPGKERELVATITLSTGSTYYADSVKGRFTISRDNAKNTVYLQMNSLKPEDTAVYYCNTEIYVDIISVYGYWGQGTQVTVSS | low polyreactivity
QVQLVESGGGLVQAGGSLRLSCAASGSIFQGYAMGWYRQAPGKERELVAAITSSGGSTYYADSVKGRFTISRDNAKNTVYLQMNSLKPEDTAVYYCAARGYSHVASRLYYYWGQGTQVTVSS | high polyreactivity
QVQLVESGGGLVQAGGSLRLSCAASGSIFNGYVMGWYRQAPGKERELVASINRGGTTNYADSVKGRFTISRDNAKNTVYFQMNSLKPEDTAVYYCAVDDDANSLGGYYVLFDYWGQGTQVTVSS | low polyreactivity
QVQLVESGGGLVQAGGSLRLSCAASGLTFNHNAMGWYRQAPGKERELVAAISRRGGSTYYADSVKGRFTISRDNAKNTVYLQMNSLKPEDTAVYYCNAPVKVRATTNWEYDYWGQGTQVTVSS | high polyreactivity
QVQLVESGGGLVQAGGSLRLSCAASRFYTMGWYRQAPGKERELVAAISWSGGDTYYADSVKGRFTISRDNAKNTVYLQMNSLKPVDTAVYYRAKKTIGSYVHEPYYYWGQGTQVTVSS | low polyreactivity
QVQLVESGGGLVQAGGSLRLSCAASGFTFTGNVMGWYRQAPGKERELVAAISSRGVSTYYADSVKGRFTISRDNAKNTVYLQMNSLKPEDTAVYYCAVSRIVDFGQKMYYWGQGTQVTVSS | high polyreactivity
QVQLQESGGGLVQAGGSLRLSCAASGNIFLGDTMGWYRQAPGKEREFVAGIARGGNPYYADSVKGRFTISRNNANNTVYLQKNSLKPEDTAVHYCAVQRSHASDYNYWGQGTQVTVSS | low polyreactivity
QVQLVESGGGLVQAGGSLRLSCAASGSTIWSNAMGWYIQAPGKERELVAVISGGTSTNYADSVKGRFTISRDNAKNTVYLQMNSLKPEDTAVYYCAADWGSYLILINDTEMDYWGQGTQVTVSS | low polyreactivity
QVQLVESGGGLVQAGGSLRLSCAASGSIFTPYAMGWYRQAPGKERELVATISWSGGRTYYADSVKGRFTISRDNAMYTVYLQMYSLKPEDTAVYYCAARGYSSEYDYWGQGTQVTVSS | high polyreactivity
